B1: Zinc finger MYM-type protein 6, residues 427 to 504; numbered along this chain, O95789 (parent)
chain: KLKCQHCNHLFATKPELLFYKGKMFLFCGKNCSDEYKKKNKVVAMCDYCKLQKIIKETVRFSGVDKPFCSEVCKFLSA

± gives the uncertainty stated by the source.

Variants of B1 are the subject of the data set. The data set is described as follows: abundance fitness (aPCA) (normalised: wild type 0, dead -1); higher = more abundant; growth selection in yeast, the domain comes from the species named. Conditions: Homo sapiens.
For KLKCQHCNHLFATKPELLFYKGKMFSFCGKNCSDEYKKKNKVVAMCDYCKLQKIIKETVRFSGVDKPFCSEVCKFLSA [L26S], the abundance fitness came to 0.054 ± 0.032. As for KLKCQHCNHLFATKPELLFYKGKMFRFCGKNCSDEYKKKNKVVAMCDYCKLQKIIKETVRFSGVDKPFCSEVCKFLSA [L26R], the figure is 0.089 ± 0.029; as for KLKCQHCNHLFATKPELLFYKGKMFQFCGKNCSDEYKKKNKVVAMCDYCKLQKIIKETVRFSGVDKPFCSEVCKFLSA [L26Q], 0.166 ± 0.057. The value for KLKCQHCNHLFATKPELLFYKGKMFNFCGKNCSDEYKKKNKVVAMCDYCKLQKIIKETVRFSGVDKPFCSEVCKFLSA [L26N] was 0.097 ± 0.058. As for KLKCQHCNHLFATKPELLFYKGKMFLFCGLNCSDEYKKKNKVVAMCDYCKLQKIIKETVRFSGVDKPFCSEVCKFLSA [K30L], the figure is -0.061 ± 0.034; as for KLKCQHCNHLFATKPELLFYKGKMFLFCGMNCSDEYKKKNKVVAMCDYCKLQKIIKETVRFSGVDKPFCSEVCKFLSA [K30M], -0.059 ± 0.038. For KLKCQHCNHLFATKPELLFYKGKMFLFCGYNCSDEYKKKNKVVAMCDYCKLQKIIKETVRFSGVDKPFCSEVCKFLSA [K30Y], the abundance fitness is -0.028 ± 0.092. Turning to KLKCQHCNHLFATKPELLFYKGKMFLFCGCNCSDEYKKKNKVVAMCDYCKLQKIIKETVRFSGVDKPFCSEVCKFLSA [K30C], the abundance fitness was -0.24 ± 0.059. As for KLKCQHCNHLFATKPELLFYKGKMFLFCGGNCSDEYKKKNKVVAMCDYCKLQKIIKETVRFSGVDKPFCSEVCKFLSA [K30G], the figure is -0.032 ± 0.029.

Turning to KLKCQHCNHLFATKPELLFYKGKMFLFCGHNCSDEYKKKNKVVAMCDYCKLQKIIKETVRFSGVDKPFCSEVCKFLSA [K30H], the abundance fitness is -0.063 ± 0.05.

KLKCQHCNHLFATKPELLFYKGKMFLFCGSNCSDEYKKKNKVVAMCDYCKLQKIIKETVRFSGVDKPFCSEVCKFLSA [K30S]: the abundance fitness was -0.049 ± 0.032. As for KLKCQHCNHLFATKPELLFYKGKMFLFCGQNCSDEYKKKNKVVAMCDYCKLQKIIKETVRFSGVDKPFCSEVCKFLSA [K30Q], the figure is -0.096 ± 0.055; as for KLKCQHCNHLFATKPELLFYKGKMFLFCGINCSDEYKKKNKVVAMCDYCKLQKIIKETVRFSGVDKPFCSEVCKFLSA [K30I], 0.021 ± 0.11.

For KLKCQHCNHLFATKPELLFYKGKMFLFCGFNCSDEYKKKNKVVAMCDYCKLQKIIKETVRFSGVDKPFCSEVCKFLSA [K30F], the abundance fitness is -0.101 ± 0.054. For KLKCQHCNHLFATKPELLFYKGKMFLFCGENCSDEYKKKNKVVAMCDYCKLQKIIKETVRFSGVDKPFCSEVCKFLSA [K30E], the abundance fitness was -0.037 ± 0.037. As for KLKCQHCNHLFATKPELLFYKGKMFLFCGTNCSDEYKKKNKVVAMCDYCKLQKIIKETVRFSGVDKPFCSEVCKFLSA [K30T], the figure is -0.123 ± 0.046; as for KLKCQHCNHLFATKPELLFYKGKMFLFCGWNCSDEYKKKNKVVAMCDYCKLQKIIKETVRFSGVDKPFCSEVCKFLSA [K30W], -0.146 ± 0.035.

With KLKCQHCNHLFATKPELLFYKGKMFLFCGDNCSDEYKKKNKVVAMCDYCKLQKIIKETVRFSGVDKPFCSEVCKFLSA [K30D], the abundance fitness is -0.138 ± 0.043.

As for KLKCQHCNHLFATKPELLFYKGKMFLFCGPNCSDEYKKKNKVVAMCDYCKLQKIIKETVRFSGVDKPFCSEVCKFLSA [K30P], the abundance fitness is -0.107 ± 0.035. KLKCQHCNHLFATKPELLFYKGKMFLFCGKACSDEYKKKNKVVAMCDYCKLQKIIKETVRFSGVDKPFCSEVCKFLSA [N31A]: the abundance fitness was -0.078 ± 0.03. With KLKCQHCNHLFATKPELLFYKGKMFLFWGKNCSDEYKKKNKVVAMCDYCKLQKIIKETVRFSGVDKPFCSEVCKFLSA [C28W], the abundance fitness is -1 ± 0.082. On to KLKCQHCNHLFATKPELLFYKGKMFLFAGKNCSDEYKKKNKVVAMCDYCKLQKIIKETVRFSGVDKPFCSEVCKFLSA [C28A], for which the abundance fitness is -1 ± 0.061. As for KLKCQHCNHLFATKPELLFYKGKMFLFMGKNCSDEYKKKNKVVAMCDYCKLQKIIKETVRFSGVDKPFCSEVCKFLSA [C28M], the figure is -0.752 ± 0.22; as for KLKCQHCNHLFATKPELLFYKGKMFLFFGKNCSDEYKKKNKVVAMCDYCKLQKIIKETVRFSGVDKPFCSEVCKFLSA [C28F], -0.855 ± 0.25. The value for KLKCQHCNHLFATKPELLFYKGKMFLFEGKNCSDEYKKKNKVVAMCDYCKLQKIIKETVRFSGVDKPFCSEVCKFLSA [C28E] was -0.671 ± 0.079; that for KLKCQHCNHLFATKPELLFYKGKMFLFRGKNCSDEYKKKNKVVAMCDYCKLQKIIKETVRFSGVDKPFCSEVCKFLSA [C28R] was -0.877 ± 0.065.

For KLKCQHCNHLFATKPELLFYKGKMFLFLGKNCSDEYKKKNKVVAMCDYCKLQKIIKETVRFSGVDKPFCSEVCKFLSA [C28L], the abundance fitness is -0.859 ± 0.087.

As to KLKCQHCNHLFATKPELLFYKGKMFLFQGKNCSDEYKKKNKVVAMCDYCKLQKIIKETVRFSGVDKPFCSEVCKFLSA [C28Q], the abundance fitness was -1.28 ± 0.48. As to KLKCQHCNHLFATKPELLFYKGKMFLFVGKNCSDEYKKKNKVVAMCDYCKLQKIIKETVRFSGVDKPFCSEVCKFLSA [C28V], the abundance fitness was -1.1 ± 0.11. KLKCQHCNHLFATKPELLFYKGKMFLFSGKNCSDEYKKKNKVVAMCDYCKLQKIIKETVRFSGVDKPFCSEVCKFLSA [C28S]: the abundance fitness was -0.969 ± 0.11.

Regarding KLKCQHCNHLFATKPELLFYKGKMFLFHGKNCSDEYKKKNKVVAMCDYCKLQKIIKETVRFSGVDKPFCSEVCKFLSA [C28H], the abundance fitness was -0.608 ± 0.12. For KLKCQHCNHLFATKPELLFYKGKMFLFGGKNCSDEYKKKNKVVAMCDYCKLQKIIKETVRFSGVDKPFCSEVCKFLSA [C28G], the abundance fitness was -0.866 ± 0.04.

With KLKCQHCNHLFATKPELLFYKGKMFLFNGKNCSDEYKKKNKVVAMCDYCKLQKIIKETVRFSGVDKPFCSEVCKFLSA [C28N], the abundance fitness is -0.367 ± 0.11. The value for KLKCQHCNHLFATKPELLFYKGKMFLFDGKNCSDEYKKKNKVVAMCDYCKLQKIIKETVRFSGVDKPFCSEVCKFLSA [C28D] was -0.352 ± 0.061; that for KLKCQHCNHLFATKPELLFYKGKMFLFKGKNCSDEYKKKNKVVAMCDYCKLQKIIKETVRFSGVDKPFCSEVCKFLSA [C28K] was -0.731 ± 0.14.

The values above are taken from the Human Domainome abundance scans (Beltran et al. 2025).
